# Laboratory results taken from paper PMC549075.
# B1: HIV-1 Tat protein, Oyi strain (natural protein)
# chain: MEPVDPRLEPWKHPGSQPKTASNNCYCKRCCLHCQVCFTKKGLGISYGRKKRRQRRRAPQDSKTHQVSLSKQPASQPRGDPTGPKESKKKVERETETDPED
# Biological target: Lamb brain tubulin (lamb)
binder,measurement,value
B1,ΔOD 350 nm plateau of 15 μM tubulin at 37°C with 8 μM compound,0.8 ΔOD 350 nm
same,ΔOD ratio (plateau with 8 μM compound divided by plateau of tubulin alone),2.63
